# Data reported in the nanobody polyreactivity screen of Harvey et al. (2022).
# Experiment: yeast display, Sf9 membrane polyspecificity reagent, FACS + sequencing; frameworks hold sequencing errors
# Summary of the method: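 Polyreactivity labels are assigned by the sorting gate from which each nanobody was recovered. The gates were low and high (top ~1%), set on anti-HA fluorescence for expression and streptavidin fluorescence for reagent binding. Before sorting, galactose-induced (36–48 hours) yeast display cells were stained for 1 hour at 4 °C with 10% biotinylated, detergent-solubilized Sf9 membrane reagent.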
row,Sequence,polyreactivity (PSR sort gate)
1,QVQLVESGGGLVQAGGSLRLICAASGSTNYRYAMGWYRQAPGKERELVATISSTGARTNYADSVKGRFTISRDNAKNTDYLQMNSLKPEDTAVYYCAASAPYIYYWGQGTQVTVSS,high polyreactivity
2,QVQLVESGGGLVQAGGSLRLSCAASGFTFGWYDMGWYRQAPGKERELVASISWSGSSTYYADSVKGRFTISRDNAKNTVYLQLNSLKPEDTAVYYCNDVSVDYVNWYWYDYWGQGTQVTVSS,high polyreactivity
3,QVQLVESGGGLLQAGGSLRLSCAASGRIFTWNAMGWYRQAPGKERELVARISSGTPTNYADSLKGRFTISRDNAKNTVYLQMNCLKPEDTAVYYCAAQSRPPFVKQYWWQRDYWGQATQVTVSS,high polyreactivity
4,QVQLVESGGGLFQAGGSLRLSCAASGRTFWAYAMGWYRQAPGKERELVAAITTSRGSTNYADSVKGRFTISRDNAKNTVYLQMNSLKPEDTAVYDCNADPTYHVVIGVGYWGQGTQVTVCS,low polyreactivity
5,QVQLVESGGGLVQAGGSLRLSCAASGSTFYRYAMGWYRQAPGKERELVARIDWSDGSTNYADSVKGRFTISRDNAKNTVYLQMNSLKPEDTAVYYCAADTYSDTYDGEYEYWGQGTQVTVSS,low polyreactivity
6,QVQLVESGGGLVQAGGSLRLSCAASGSTFVRNGMGWYRQSPGKVRELVASISGRGGSTYYADSVKGRFTISRDNAKNTVYLQMNSLKPEDTAVYYCAARKQRGGGPTFDYWGQGTQVTVSS,high polyreactivity
7,QVQLVESGGGLVQAGGSLRLSCAASGRTFTYNAMGWYRQAPGKERELDAAISWNGGRTYYADSVKGRFTISRDNAKNTVYLQMNSLKPEDTAVYYCAARSPKDSYSIQRYYWGQGTQVTVSS,high polyreactivity
8,QVQLVESGGGLVQAGGSLRLSCAASGRTFKLNAMGWYRKAPGKERELVAGITRTGDSTYYADSVKGRFTISRDNAKNTVYLQMNSLKPEDTAVYYCAAAEWYSMDYWGQGTQVTVSS,low polyreactivity
9,QVQLVESGGGLVQAGGSLRLSCAASGGIFGYYAMGWYRQAPGKERELVAAINYSGGSTYYADSVKGRFTISRDNAKNTVYLQMNSLKPEDTAVYYCNAVVRDYTFRYYYWGQGTQVTVSS,low polyreactivity
10,QVQLVETGGGLVQAGGSLRLSCAASGSIFWYYAMGWYRQAPGKERELVAAISAYGSSTYYADSVKGRFTISRDNAKNTVYLQMNSLKPEDTAVYYCAATYILYNDWLYHYFPEEYDYWGQGTQVTVSS,low polyreactivity
11,QVQIVESGGGLVQAGATLRLSCDASGITIEGYAMGWYRQAPGKERELVAAIRSSGTSTYYADSVKGRFTITRDFAKNTVYLQMNSLKPEDTAVYYCNRARSSSRYDYWGQGTQVTVSS,low polyreactivity
12,QVQLVESGGGLVEAGGSLRLTCAASGIIFYQYAMGWYRQAPGKERELVAAISSRGGSTYYADSVKGRFTISRDNAKNTVYLQMNSLKPEDTAVYYCAAGSTRSTDGYWGQGTQVTVSS,high polyreactivity
13,QVQLVESGGGLVQAGGSLRLSCAASGITLAYNAMGLYRQAPGTEREFVAAIDVCGGRTYYADSVKGRFTISRDNAKNTVYLQMNSLKPEDTAVYYCAAADIIDHSFPYDYWGQGTQVTVSS,low polyreactivity
14,QVQLVESGGGLVQAGGSLRLSCAASGFIFRKYAMGWFRQAPGKERELVAAISRGGGSTYYADSVKGRFTISRDNAKNTVYLQMNSLKPEDTAVYYCAVGIVQRDSRYYYWGQGTQVTVSS,high polyreactivity
15,QVQLVESGGGLVQAGGSLRLTCAASGRIFTRYAMGWYRQAPGKERELVAAINYRGSSTYYADSVKGRFTISRDNAKNTVYLQMNSLKPEDTAVYYCNTYGQTDTYWRYYYWGQGTQVTVSS,high polyreactivity
16,QVQIVESGGGLVQAGGSLRLSCAASGRIFRRYVMGWYRPAPGKERELVAAITKSGTSTYYADSVKGRFTISRDNAKNTVYLQMNSLKPEDTAVYYCAAVPYQSKYPRFGYWGQGTQVTVSS,high polyreactivity
17,QVQLVESGGGLVQAGGSLRLSCAASGFTIIIYAMGWYRQAPGKERQLVAAINTSGTRTYYADSVKGRFTISRDNAKNTVYLQMNSLKPEDTAVYYCAARSGYKGEHGDRDDYWGQGTQVTVSS,high polyreactivity
18,QVQLVESGGGLVQAGGSLRLSCAASGLTFYRYAMGWYRQAPGKERELVAAITSGTRTYYADSVKGRFTISRDNAKNTVYLQMNSLKPEDTAVYYCAFRQGWYHFRYDYWGQGTQVTVSS,high polyreactivity
19,QVQLVDSGGGLVQAGASLRLSCAASGSTFSSNVMGWYRQAPGKERELVAAITKTGGLTYYADSVKGRFTISRDNAKNTVYLNMNSLKPEDTSVYYCAAKSKRRGTTSVYYYWGQGTQVTVSS,high polyreactivity
20,QVQLVESGGGLVQAGGSLRLSCASSGRTFTYYTMGWYRQAPGKERELVAAISSSGGSTYYADSVKGRFTISRDNAKNTVYLQMNSLKPEDTAVYYCAAVRGRLLPPYGYWGQGTQVTVSS,high polyreactivity
21,QVQLVESGGGLVQAGGSLRLSCAASGSTFVAYAKGWYRQAPGKETEWDASISGSGGTTNYADSVKGRFTISRDNAKNTVYLQMNSLKPEDTAVYYCARRYYSVKSRYALNSWGQGTQVTVSS,high polyreactivity

row,Sequence,polyreactivity (PSR sort gate)
1,QVQHVESGRGLVQAGRSLRLSCAASGRIFQRYAMGWYRQAPGKERELVAVITKRGGNTYYADSVKGRFTISRDNAKNTVYLQMNSLKPEDTAVYYCASRSGRSTGDYWGQGTQVTVSS,high polyreactivity
2,QVQLVESGGGLVQAGGSLRLSCAASGIIFGQNALGWYRQAPGKEREVVAAITISGGSTYYSDSVKGRFTISRDNAKNTVYLQMNSLKPEDTAVYYCAAEWYYVYIAPYDYWGQGTQVTVSS,low polyreactivity
3,QVQLVESGGGLVQAGGSLRLSCAASGSTFRGYAMGWYRQAPGKERELVAAISWSAGSTYYADSVKGRFTISRDNAKNTVYLQMNRLKPEDTAVYYCAKASVALRYYSYSLGRDYWGQGTQVTVSS,low polyreactivity
4,QVQLVESGGGLVQAGGSLRLSCAASGRIFYINTMGWYRQAPGKERELVAAISRRGGSTYYADSVKGRFTISRDNAKNTVYLQMNSLKPEDTAVYYCAARDQYGPGYRSESLDSWGQGTQVTVSS,low polyreactivity
5,QVQLVESCGGLVQAGGSLRLSCAASGSTFSLYGMGWYRQAPAKERELVATITYSGGRTYYADSVKGRFTISLDNAKNTVYLQLNSLKPEDTAVYYCAARLAPLYRTYYYWGQGTQVTVSS,low polyreactivity
6,QVQLVESGGGLVQAGGSLRLSCAASGSIFDRYAMGWYRQAPGKERELVASIRQRGGSTYYADSVKGRFTISRDNAKNTVYLQMNSLKPEDTAVYYCAARKYPFRQSTYDYWGQGTQVTVSS,low polyreactivity
7,QVQLVESGGGLVQAGGSLRLSCAASGSIFHVYGMGWYRQAPGKEREFVADITSRGTRTYYADSVKGRFTISRDNAKNTVYLQMNSLKPEDTAVYYCNTLVGVDFWLVDYWGQVTQVTVSS,low polyreactivity
8,QVQLVESGGGLVQAGGSLRLSCAASGSIFDPNAMGWYRQAPGKEREFVAAISYGGGSTTYADSVKGRFTISRDNAKNTVYLQMNSLKPEDTAVYYCAAGFYTYPTWFHPGYLFSAGDYWGQGTQVTVSS,low polyreactivity
9,QVQLVESGGGLVQAGGSLRLSCAASGRTFAYNAMGWYRPAPGKEREFVAGISRSGGSTYYADSVKGRFTISRDNAKNTVYLQMNSLKPEDTAVYYCAAQFYALPNVGTKYYSWGQGTQVTVSS,low polyreactivity
10,QVQLVESGGGLVQAGGSLRLSCAASGFIFYYYAMGWYRQAPAKERELVAVITSGGSTNYADSVKGRFTISRDNAKNTVYLQMNSLKPEDTAVYYCAARSRRRDDYWGQGTQVTVSS,high polyreactivity
11,QVQLVESGGGLVQAGGSLRLSCAASGSTFRRNAMGWYRPAPGKERELVAAITSTDSTYYADSVKGRFTISRDNAKNTVYLQMNSLKPEDTAVYYCAKGYWWGGQMGYWGQGTQVTVSS,low polyreactivity
12,QVQLVESGGGLVQAGGSLRLSCAASGSLFYVYAMGWYRQAPGKERELVAAITNYADSVKGRFTISRDNAKNTVYLQMNSLKPEDTAVYYCAADWWRVEMDYWGQGSQVTVSS,low polyreactivity
13,QVQLVESGGGLVQAGGSLRLSCAASGRIFDANAMGWYRQAPGKERELVAAITSSGGRTYYADSVKGRFTISRDNAKNTVYLQMNSLKPEDTAVYYCARAGRSWDTLYKYYLEHDYWGQGTQVTVSS,low polyreactivity
14,QVQLVESGGGLVQAGGSLRLSCAASGRTFPGYAMGWYRQAPGKERELVAAISWSGTSTYYADSVKGRFTISRDNAKNTVYLQMNSLKPEDTAVYYCNKVYTYSAPYYYWGQGTQVTVSS,high polyreactivity
15,QVQLVESGGGLVHAGGPLRLSCAASGFTFGEYAMGWYRPAPGKERELVAAITWSVGSTYYADSVKGRFTISRDNAKNTVYLEMNSLKPEDTAVYYCAAVLNWSRYGYWGQGTQVTVSS,low polyreactivity
16,QVQLVESGGGLVQAGGSLRLSCAASGSTFSYYTMGWYRQAPGKERELVAAISRTGGSTYYADSVKGRFTISRDNAKNTVYLQMNSLKPEDTAVYYCAAKGYVGRYDYWGQGTQVTVSS,high polyreactivity
17,QVQLVESGGGLVQAGGSLRLSCAASGIIIDNYTMGWYRQAPGKEREFVAAINKSGGSTYADSVKGRFTISRDNAKNTVYLQMNSLKPEDTAVYYCAAEVDYSYWPEYARKYYYWGQGTQVTVSS,low polyreactivity
18,QVQLVESGGGLVQAGGSLRLSCAASGRTFRYYAMGWYRQAPGKERELVAAITSGGSTYYADSVKGRFTISRDNAKNTVYLQMNSLKPEDTAVYYCNAFFATGVDYWGQGTQVTVSS,high polyreactivity
19,QVQLVESGGGLVQAGGSLRLSCAASGGIIQGYSMVWYRQAPGKERELVAAISSSGGTTYYADSVKGRFTISRDNAKNTVYLQMNSLKPEDTAVYYCAAPTHSPYDYWGQGTQVTVSS,low polyreactivity
20,QVQLVESGGGLVQAGGSLRLSCAASGRIFAFYAMGWYRQAPGKVREFVAAITKSGGSTYYADSVKGRFTISRDNAKNTVYLQMNSLKPEDTAVYYCAADYWYPTTYYLYDYWGQGTQVTVSS,low polyreactivity
